This is an account of results in publication PMC12730314, “The Role of Surfactants in Stabilizing Fluorescence Anisotropy for Protein–Aptamer Binding Affinity Measurements”.

The target in data set [1] is T1, thrombin (human plasma) (Homo sapiens, UniProt P00734;P00734 328-363;364-622). The experiment in a line: fluorescence anisotropy; 0.1% Tween 20, 50 nM aptamer; Hill fit; Thrombin: TGK (192 mM Tris, 5 mM KH2PO4, 25 mM glycine hydrochloride; pH not stated) +/- 0.1% Tween 20, thrombin stock in 1 mg/mL BSA, 25 C, 40 min; HSA: PBS +.
The target of data set [2] is T1, thrombin (human plasma). Nature of the data set: fluorescence anisotropy; 0.1% Tween 20, 75 nM aptamer; Hill fit; Thrombin: TGK (192 mM Tris, 5 mM KH2PO4, 25 mM glycine hydrochloride; pH not stated) +/- 0.1% Tween 20, thrombin stock in 1 mg/mL BSA, 25 C, 40 min; HSA: PBS +. A general note: Fluorescence polarisation rises when a labelled molecule tumbles more slowly, as on binding a larger partner.

Data set [3] deals with T1, thrombin (human plasma). Nature of the data set: fluorescence anisotropy; 0.1% Tween 20, 25 nM aptamer; Hill fit; Thrombin: TGK (192 mM Tris, 5 mM KH2PO4, 25 mM glycine hydrochloride; pH not stated) +/- 0.1% Tween 20, thrombin stock in 1 mg/mL BSA, 25 C, 40 min; HSA: PBS +.
Data set [4] concerns the target T1, thrombin (human plasma). Nature of the data set: fluorescence anisotropy; no surfactant, 75 nM aptamer; Hill fit; Thrombin: TGK (192 mM Tris, 5 mM KH2PO4, 25 mM glycine hydrochloride; pH not stated) +/- 0.1% Tween 20, thrombin stock in 1 mg/mL BSA, 25 C, 40 min; HSA: PBS +.
Data set [5] deals with human serum albumin (HSA) (Homo sapiens, UniProt P02768 25-609). The experiment in a line: fluorescence anisotropy; PBS + 5 mM MgCl2, no Tween 20; saturable, poor 1:1 fit; 25 C, 40 min; HSA: PBS +. The conditions noted are these: protein: commercial.

The Kd is the free concentration of one partner at which half of the binding sites on the other are occupied at equilibrium, for simple one-to-one binding.

Sequence of human serum albumin (HSA) (P02768 25-609): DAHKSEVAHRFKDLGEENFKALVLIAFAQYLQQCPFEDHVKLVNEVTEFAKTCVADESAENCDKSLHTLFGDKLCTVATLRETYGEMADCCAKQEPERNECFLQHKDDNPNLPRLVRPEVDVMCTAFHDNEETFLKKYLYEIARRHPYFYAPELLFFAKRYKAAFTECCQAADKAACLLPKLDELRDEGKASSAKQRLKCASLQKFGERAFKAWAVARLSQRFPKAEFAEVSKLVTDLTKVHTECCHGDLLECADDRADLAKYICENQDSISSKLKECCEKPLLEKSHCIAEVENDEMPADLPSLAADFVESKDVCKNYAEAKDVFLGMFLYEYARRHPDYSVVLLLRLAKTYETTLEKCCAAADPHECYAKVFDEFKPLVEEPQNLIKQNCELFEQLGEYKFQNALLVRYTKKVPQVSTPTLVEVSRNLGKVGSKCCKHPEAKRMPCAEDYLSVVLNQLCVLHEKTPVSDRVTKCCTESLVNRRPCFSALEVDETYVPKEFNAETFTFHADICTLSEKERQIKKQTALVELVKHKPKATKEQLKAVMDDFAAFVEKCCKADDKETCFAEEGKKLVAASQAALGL

On to AGTCCGTGGTAGGGCAGGTTGGGGTGACT (structured_DNA) [TR-labeled thrombin-binding 29mer], for which the Kd with thrombin (human plasma) [1] worked out at 53 nM; in the data set with thrombin (human plasma) [2], 30 nM; with thrombin (human plasma) [3] it was 35 nM; in the data set with thrombin (human plasma) [4], 54 nM.

With TCCACGATGTAGGATCCACATGAGCGCTCCTGTTACCCTG (ssDNA) [TR-labeled s10yh2], the binding result in data set [5] is recorded as “binds”.
